The source of these data is US20150210756A1 (NEW YORK UNIVERSITY, published 2015).

Assay [1] has as its target T1, HlgC (S. aureus, UniProt Q07227 30-315).
T1 construct: also called gamma hemolysin C; HlgC subunit
T1 sequence: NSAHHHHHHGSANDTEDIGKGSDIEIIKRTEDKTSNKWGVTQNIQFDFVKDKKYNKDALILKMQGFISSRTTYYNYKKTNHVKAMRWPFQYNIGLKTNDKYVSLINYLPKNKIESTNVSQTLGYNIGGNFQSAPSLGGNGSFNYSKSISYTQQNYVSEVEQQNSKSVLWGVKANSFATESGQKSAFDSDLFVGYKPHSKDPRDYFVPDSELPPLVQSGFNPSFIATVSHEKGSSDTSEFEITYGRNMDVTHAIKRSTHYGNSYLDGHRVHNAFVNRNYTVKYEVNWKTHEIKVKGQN
The experiment in a line: ELISA on purified, recombinant HlgC.

Assay [2] concerns the target T2, LukS-PV (S. aureus).
T2 construct: also called Panton-Valentine leukocidin S; LukS-PV subunit of the PVL leukotoxin
T2 chain: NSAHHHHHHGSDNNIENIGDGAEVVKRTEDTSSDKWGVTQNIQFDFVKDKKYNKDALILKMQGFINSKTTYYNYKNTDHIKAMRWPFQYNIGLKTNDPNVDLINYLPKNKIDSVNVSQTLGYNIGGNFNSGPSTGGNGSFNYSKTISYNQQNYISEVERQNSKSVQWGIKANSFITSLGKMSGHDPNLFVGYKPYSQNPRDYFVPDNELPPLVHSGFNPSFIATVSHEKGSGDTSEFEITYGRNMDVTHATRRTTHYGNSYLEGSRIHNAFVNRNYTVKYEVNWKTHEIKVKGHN
The assay is described as follows: ELISA on purified, recombinant LukS-PV.

Assay [3] addresses T3, Protein A (Staphylococcus aureus, UniProt P38507 37-477).
T3 construct: also called S. aureus Protein A; SpA
The assay is described as follows: direct ELISA on coated biotinylated Protein A.

Assay [4] addresses human FcγRI (human, UniProt P12314 16-288). The assay is described as follows: AlphaScreen competition against biotinylated IgG1.
The target of assay [5] is human FcγRIIIa (V158) (human, UniProt P08637 17-208). The assay is described as follows: AlphaScreen competition against biotinylated IgG1.
Chain of human FcγRIIIa (V158) (P08637 17-208 F176V limits assumed): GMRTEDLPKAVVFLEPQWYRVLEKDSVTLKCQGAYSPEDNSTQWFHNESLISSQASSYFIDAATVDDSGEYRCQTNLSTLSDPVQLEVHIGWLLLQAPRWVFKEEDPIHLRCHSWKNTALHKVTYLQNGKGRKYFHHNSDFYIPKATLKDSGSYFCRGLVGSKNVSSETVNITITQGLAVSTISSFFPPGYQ
For assay [6], the target named is T3, Protein A. The assay is described as follows: western blot of S. aureus lysates. Background: In western blotting, separated proteins are transferred to a membrane and probed.
Assay [7] has as its target T4, SdgB-glycosylated recombinant SdrC4 protein (S. aureus, UniProt O86487 51-910).
T4 construct: also called SdgB-glycosylated SdrC4 protein
The experiment in a line: ELISA on coated SdgB-glycosylated SdrC4. (ELISA stands for enzyme-linked immunosorbent assay.)

Assay [8] addresses T5, HlgA (S. aureus, UniProt P0A071 30-309).
T5 construct: also called gamma hemolysin A; HlgA subunit
T5 sequence: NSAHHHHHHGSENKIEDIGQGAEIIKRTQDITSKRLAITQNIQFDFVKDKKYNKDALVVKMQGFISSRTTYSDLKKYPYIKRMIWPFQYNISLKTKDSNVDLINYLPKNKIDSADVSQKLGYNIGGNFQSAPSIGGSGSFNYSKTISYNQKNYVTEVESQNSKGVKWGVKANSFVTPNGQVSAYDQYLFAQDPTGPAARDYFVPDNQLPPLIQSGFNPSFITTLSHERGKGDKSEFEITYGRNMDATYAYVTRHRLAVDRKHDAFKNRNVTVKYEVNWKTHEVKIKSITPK
The experiment in a line: ELISA on purified, recombinant HlgA.

Chain of human FcγRI (P12314 16-288 limits assumed): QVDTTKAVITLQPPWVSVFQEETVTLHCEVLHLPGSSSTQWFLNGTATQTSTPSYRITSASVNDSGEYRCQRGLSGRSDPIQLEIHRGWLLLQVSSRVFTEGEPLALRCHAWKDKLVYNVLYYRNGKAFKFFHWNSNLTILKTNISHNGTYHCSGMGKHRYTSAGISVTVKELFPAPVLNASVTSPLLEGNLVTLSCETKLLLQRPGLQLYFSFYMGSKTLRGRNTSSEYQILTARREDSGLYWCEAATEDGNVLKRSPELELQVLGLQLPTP
T4 sequence (O86487 51-910, tags left off): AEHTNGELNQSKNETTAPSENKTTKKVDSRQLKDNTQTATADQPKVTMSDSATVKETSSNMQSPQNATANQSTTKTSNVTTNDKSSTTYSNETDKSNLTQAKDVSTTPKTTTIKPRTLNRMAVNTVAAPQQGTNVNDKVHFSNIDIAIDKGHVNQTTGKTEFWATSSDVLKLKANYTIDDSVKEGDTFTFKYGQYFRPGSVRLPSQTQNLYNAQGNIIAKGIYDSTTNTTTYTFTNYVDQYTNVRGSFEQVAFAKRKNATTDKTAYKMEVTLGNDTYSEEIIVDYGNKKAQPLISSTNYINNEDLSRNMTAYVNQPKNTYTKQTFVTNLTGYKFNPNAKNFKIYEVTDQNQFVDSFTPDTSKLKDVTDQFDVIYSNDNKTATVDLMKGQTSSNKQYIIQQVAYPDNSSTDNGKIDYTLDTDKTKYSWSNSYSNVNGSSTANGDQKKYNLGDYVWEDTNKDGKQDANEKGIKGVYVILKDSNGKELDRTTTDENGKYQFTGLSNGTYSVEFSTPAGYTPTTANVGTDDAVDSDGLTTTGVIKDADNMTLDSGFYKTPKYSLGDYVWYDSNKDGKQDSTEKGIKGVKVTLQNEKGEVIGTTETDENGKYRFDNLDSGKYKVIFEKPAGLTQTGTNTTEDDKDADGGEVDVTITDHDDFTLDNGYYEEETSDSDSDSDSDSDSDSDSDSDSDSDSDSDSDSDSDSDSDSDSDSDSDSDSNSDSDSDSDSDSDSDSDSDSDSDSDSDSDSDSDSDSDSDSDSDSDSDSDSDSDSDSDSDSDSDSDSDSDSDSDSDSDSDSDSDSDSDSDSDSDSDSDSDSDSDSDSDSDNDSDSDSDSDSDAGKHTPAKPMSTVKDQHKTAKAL

B1: Luk188 (designed binder)
chain: LPAPKNLVVSRVTEDSARLSWTAPDAAFDSFHIHYWEFNPAGEAIVLTVPGSERSYDLTGLKPGTEYFVGIHGVKGGGISWPLSAIFTT
For B1, in assay [1], the binding result was “binds”.

B2: Luk540 (designed binder)
chain: LPAPKNLVVSRVTEDSARLSWTAPDAAFDSFHIEYPEDTEQGEAIVLTVPGSERSYDLTGLKPGTEYNVHITGVKGGSKSAPLSAIFTT
As to B2, the binding result in assay [2] was “binds”.

B3: CR5133 PRASA A6 LC-D (Construct 5) (other)
heavy: EVQLVETGGGLVKPGGSLRLSCSASRFSFRDYYMTWIRQAPGKGPEWVSHISGSGSTIYYADSVRGRFTISRDNAKSSLYLQMDSLQADDTAVYYCARGGRATSYYWVHWGPGTLVTVSSASTKGPSVFPLAPSSKSTSGGTAALGCLVKDYFPEPVTVSWNSGALTSGVHTFPAVLQSSGLYSLSSVVTVPSSSLGTQTYICNVNHKPSNTKVDKKVEPKSCDKTHTCPPCPAPPVAGPDVFLFPPKPKDTLMISRTPEVTCVVVDVSHEDPEVKFNWYVDGVEVHNAKTKPREEQYNSTYRVVSVLTVLHQDWLNGKEYKCKVSNAALPAPIAKTISKAKGQPREPQVYTLPPSRDELTKNQVSLTCLVKGFYPSDIAVEWESNGQPENNYKTTPPVLDSDGSFFLYSKLTVDKSRWQQGNVFSCSVMHEALHNRFTQKSLSLSPGK
light: EIVLTQSPATLSLSPGERATLSCRASQSVSGYLGWYQQKPGQAPRLLIYGASSRATGIPDRFSGSGSGTDFTLTISRLEPEDFAVYYCQQYGSSPLTFGGGTKLEIKRTVAAPSVFIFPPSDEQLKSGTASVVCLLNNFYPREAKVQWKVDNALQSGNSQESVTEQDSKDSTYSLSSTLTLSKADYEKHKVYACEVTHQGLSSPVTKSFNRGECGGGGSGGGGSGGGGSGGGGSLPAPKNLVVSRVTEDSARLSWRAKPWAPKFDSFLIQYQESEKVGEAIVLTVPGSERSYDLTGLKPGTEYTVSIYGVKASEKFIESNPLSAIFTT
For the molecule B3, the binding result in assay [3] is on record as “no binding”; in assay [4] it was “no binding”; in assay [5] it was “binds”.

B4: CR5133 PRASA A6 LC-D HC-AB (Construct 7) (other)
heavy: EVQLVETGGGLVKPGGSLRLSCSASRFSFRDYYMTWIRQAPGKGPEWVSHISGSGSTIYYADSVRGRFTISRDNAKSSLYLQMDSLQADDTAVYYCARGGRATSYYWVHWGPGTLVTVSSASTKGPSVFPLAPSSKSTSGGTAALGCLVKDYFPEPVTVSWNSGALTSGVHTFPAVLQSSGLYSLSSVVTVPSSSLGTQTYICNVNHKPSNTKVDKKVEPKSCDKTHTCPPCPAPPVAGPDVFLFPPKPKDTLMISRTPEVTCVVVDVSHEDPEVKFNWYVDGVEVHNAKTKPREEQYNSTYRVVSVLTVLHQDWLNGKEYKCKVSNAALPAPIAKTISKAKGQPREPQVYTLPPSRDELTKNQVSLTCLVKGFYPSDIAVEWESNGQPENNYKTTPPVLDSDGSFFLYSKLTVDKSRWQQGNVFSCSVMHEALHNRFTQKSLSLSPGKGGGGSGGGGSGGGGSGGGGSMLPAPKNLVVSRVTEDSARLSWTAPDAAFDSFWITYEEKFYRGEAIVLTVPGSERSYDLTGLKPGTEYKVWIVGVKGGQGSWPLSAIFTT
light: B3 light
notes: also called PRASA A6 LC-D AB construct 7
As to B4, the figures for the binding result in assay [3], in assay [4] and in assay [5] were “no binding”, “no binding” and “binds”, respectively.

B5: mAb 5133 A6 (Construct 3, CR5133 A6) (antibody)
heavy: not shown
light: EIVLTQSPATLSLSPGERATLSCRASQSVSGYLGWYQQKPGQAPRLLIYGASSRATGIPDRFSGSGSGTDFTLTISRLEPEDFAVYYCQQYGSSPLTFGGGTKLEIKRTVAAPSVFIFPPSDEQLKSGTASVVCLLNNFYPREAKVQWKVDNALQSGNSQESVTEQDSKDSTYSLSSTLTLSKADYEKHKVYACEVTHQGLSSPVTKSFNRGEC
For the molecule B5, the binding result is “no binding (tested: 2 µg/mL)” in assay [6], “binds” in assay [4] and “binds” in assay [5].

B6: CR5133 PRASA A6 HC-AB (Construct 6) (other)
heavy: B4 heavy
light: B5 light
notes: also called mAb 5133 PRASA A6 HC LukAB
On to B6, for which the binding result is “no binding” in assay [3], “no binding” in assay [4] and “binds” in assay [5].

B7: mAb 5133 PRASA A6 (Construct 4, CR5133 PRASA A6) (antibody)
heavy: B3 heavy
light: B5 light
notes: also called PRASA A6 parental mAb
For B7, the binding result in assay [6] is reported as “no binding (tested: 2 µg/mL)”; in assay [4], “no binding”; in assay [5], “binds”.

B8: pagibaximab (antibody, V domains shown)
VH: EVMLVESGGGLVQPKGSLKLSCAASGFTFNNYAMNWVRQAPGKGLEWVARIRSKSNNYATFYADSVKDRFTISRDDSQSMLYLQMNNLKTEDTAMYYCVRRGASGIDYAMDYWGQGTSLTVSS
VL: DIVLSQSPAILSASPGEKVTMTCRASSSVNYMHWYQQKPGSSPKPWISATSNLASGVPARFSGSGSGTSYSLTISRVEAEDAATYYCQQWSSNPPTFGGGTMLEIKR
notes: also called anti-LTA mAb
Turning to B8, the binding result in assay [7] was “no binding (tested: starting at 10 µg/mL)”.

B9: Luk151 (designed binder)
chain: LPAPKNLVVSRVTEDSARLSWTAPDAAFDSFGITYTEVYWWGEAIVLTVPGSERSYDLTGLKPGTEYTVTIPGVKGGWISAPLSAIFTT
In the case of B9, in assay [8], the binding result is “binds”.

B10: Luk647 (designed binder)
chain: LPAPKNLVVSRVTEDSARLSWTAPDAAFDSFSIYYGEWDPTGEAIVLTVPGSERSYDLTGLKPGTEYWVLIVGVKGGSTSAPLSAIFTT
Take B10: the binding result in assay [2] is “binds”.

B11: Luk357 (designed binder)
chain: LPAPKNLVVSRVTEDSARLSWTAPDAAFDSFTIHYFESLLTGEAISLVVPGSERSYDLTGLKPGTEYLVPIYGVKGGFISQPLIAIFTT
Consider B11, for which the binding result in assay [1] is given as “binds”.

B12: Luk129 (designed binder)
chain: LPAPKNLVVSRVTEDSARLSWTAPDAAFDSFNINYPEEFHGGEAIVLTVPGSERSYDLTGLKPGTEYEVWIWGVKGGSSSNPLSAIFTT
Take B12: in assay [8], the binding result is on record as “binds”.
